# Experimental data from PMC12121391, “Crystal structure of ATP-dependent DNA ligase from Rhizobium phage vB_RleM_P10VF”.
# T1: P10VF-Lig (ATP-dependent DNA ligase) (Rhizobium phage vB_RleM_P10VF, UniProt A0A076YM08)
# T1 sequence: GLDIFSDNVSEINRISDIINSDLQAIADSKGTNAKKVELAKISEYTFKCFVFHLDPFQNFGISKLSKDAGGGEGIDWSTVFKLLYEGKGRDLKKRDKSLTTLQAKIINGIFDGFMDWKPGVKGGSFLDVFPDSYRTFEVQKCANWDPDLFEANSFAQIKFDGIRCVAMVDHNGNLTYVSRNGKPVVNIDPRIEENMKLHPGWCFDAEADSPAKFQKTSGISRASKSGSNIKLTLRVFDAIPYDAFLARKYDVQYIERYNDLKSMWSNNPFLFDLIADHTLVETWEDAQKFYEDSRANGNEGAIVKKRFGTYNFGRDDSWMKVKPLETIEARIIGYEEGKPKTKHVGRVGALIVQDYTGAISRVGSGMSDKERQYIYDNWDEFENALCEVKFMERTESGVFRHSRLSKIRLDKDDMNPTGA
# B1: nicked DNA duplex (21 nt complement, 10 + 11 nt nicked strand) (dsDNA)
# DNA 1: TTCCGACAGTGGGGTCGCAAT
# DNA 2: ATTGCGACCC
# DNA 3: CACTATCGGAA
# modifications: 2'-O-methyl one nucleotide upstream of the 3' terminus at the nick (strand 2); 5'-phosphate at the nick (strand 3), adenylated (AMP) in the crystal
# Target: T1, P10VF-Lig (ATP-dependent DNA ligase)
# Experiment: X-ray crystallography; AMP transferred to the DNA 5'-phosphate (step 2 intermediate); EDTA 5 mM; 2.2 Å; Crystallization: protein in 50 mM Tris pH 7.5, 200 mM NaCl, 1 mM beta-mercaptoethanol; 1.2 eq nicked duplex, 5 mM EDTA, 30 min on ice; 24% PEG 4000, 100 mM bis-Tris pH 5.5, 4 °C (278 K in Table 2)
# Conditions: protein: recombinant, SeMet-substituted, 21 bp, blunt ends
binder,measurement,value
B1,binding result,binds
